Here are results for 102 substances from the supplement of paper PMC12042874.

± gives the uncertainty stated by the source.

A short description of the data set: amyloid nucleation score (Sup35N fusion, yeast selection) (log enrichment); library NNK2; higher = more nucleation; inactive = no reads after selection. The gist of the method:
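Yeast lacking psi expressed peptides of 20 random codons fused to Sup35N, received 100 μM copper sulfate for 24 hours, and were then grown for 7 days at 30°C on medium lacking adenine and uracil. Illumina sequencing of input and output plasmid inserts provided the reads. Nucleation scores are DiMSum log enrichments of output over input, centred on the mode of non-aggregating sequences. Any sequence with under 100 input reads was excluded.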
LYDVAQDEPLVSRMGLFDPR: the amyloid nucleation score is 3.46 ± 0.069.

As for LYEMDSKC, the amyloid nucleation score was -0.603 ± 1.1. In the case of LYFRYWVMDSQASNFHRCRG it was -0.14 ± 1; in that of LYHEDRSVISRLVSSRLKCK, 0.389 ± 0.38; in that of LYIMDLFSTAWFDMLYVKGR, -1.45 ± 0.78. The substance LYKSGA had an amyloid nucleation score of -0.574 ± 0.28. In the case of LYLTGNF it was -0.199 ± 0.76; in that of LYLWWILIYDHMAPKEW, -0.47 ± 0.63; in that of LYNVVSNTVKYCIFPC, 7.135 ± 0.043.

Consider LYVRRYNWSHVGFHFCGLDT, for which the amyloid nucleation score was -0.384 ± 0.79. LYVSFDYGAQRVHYSTAYVK came in with an amyloid nucleation score of -0.013 ± 0.48.

In turn, LYWKSGEHIWYLGSILGCVG displayed an amyloid nucleation score of 0.593 ± 0.56.

The substance LYWRKTVITIEWSCSGGNLR returned an amyloid nucleation score of 0.278 ± 0.27. In the case of LYYMHNE it was -0.652 ± 0.64; in that of MAILVGSFDVDSNCVDSWGV, 0.027 ± 0.74. Turning to MASGRWYSNSTYGDCMGGIA, the amyloid nucleation score was -0.321 ± 1. Take MAYWESTVIYYIDWEWDSLV: the amyloid nucleation score was -1.16 ± 0.39.

MCFSPCCRWPRIRQEDQG returned an amyloid nucleation score of 0.531 ± 0.64. In the case of MCLYVRLWFMSPVSLDSSAL it was -0.512 ± 0.55. In the case of MCMLTLRLNQLYMAIMHG it was 0.603 ± 0.36; in that of MDHCTFYIRGMMPRMYGCTK, -0.711 ± 0.44; in that of MDLCINNVWWEAKTSSLGLL, “inactive”. The substance MDVMVDW came in with an amyloid nucleation score of -0.343 ± 0.63. In the case of MDYNLIKCAPWT, the amyloid nucleation score entry was “inactive”. In the case of MEQELMFREWLW it was -0.284 ± 0.48; in that of MFARDNRFPYCDDTRSDSSF, 0.178 ± 0.45; in that of MFERW, -0.184 ± 0.56.

Take MFMANGSWTYEEVIE: the amyloid nucleation score amounted to 1.47 ± 0.16.

As to MFMTVRWNVAINLELFTVID, the amyloid nucleation score was -0.34 ± 0.39. In the case of MFNVLIGVGRAGVNNPGHSL it was 0.343 ± 0.64. With MFNYINYYSYHFEFSKCFVR, the amyloid nucleation score was 2.26 ± 0.14.

MFVFRCVVRTCRSDHENDHS displayed an amyloid nucleation score of 4.987 ± 0.049. Consider MFYLS, for which the amyloid nucleation score is -0.476 ± 0.37. To MGAVESGKSRSMCAVLAWSE belongs 1.02 ± 0.41; to MGCLTVVRNLEFNRVCGRGD, -0.669 ± 0.49; to MGENVLGRQGVLPKGEI, 0.192 ± 0.45. To MGEYFSMALYAPYTWVFMSV belongs -1.55 ± 1; to MGIMPQITLDLNLLYLGKVL, 0.14 ± 0.35. In the case of MGLVDGMCMFDFDLVLAVVG it was “inactive”.

Regarding MGQTVSRPWQAGSLYGANPC, the amyloid nucleation score came out at 0.926 ± 0.45. For the substance MGRTHRTTTPGSRFYTSTAF, the amyloid nucleation score is -0.57 ± 1. In turn, MGRTMILRSLDQMMVITVGL displayed an amyloid nucleation score of -0.598 ± 0.36. For the substance MGSNAWVLNNACHGLFTSAS, the amyloid nucleation score turned out to be 0.386 ± 0.35.

With MHASGHWYMKRSSLGADSPV, the amyloid nucleation score is 0.815 ± 0.18. Substance MHCYSIGFRLMRSANMLSCY came in with an amyloid nucleation score of 0.394 ± 0.33. To MHGREFWRCTSWSSLVNLGV belongs 0.998 ± 0.19; to MHVDVV, -0.352 ± 1; to MIFLYCYIRIEKKVS, -0.927 ± 0.36. On to MIHQIELNDIGWVLTTFCNE, for which the amyloid nucleation score was -0.536 ± 1. In the case of MIRLRIVYGTLDMYGLQMYS, the amyloid nucleation score came out at 1.46 ± 0.27. For the substance MIRWSRRTCRKGLTECTCST, the amyloid nucleation score was 1.52 ± 0.33. In the case of MIVFLYRLY it was -0.061 ± 0.39; in that of MIVWWNYCGSAVPRKIL, -0.586 ± 1.1; in that of MKCWASPGWTQIQMEPKEGS, 0.064 ± 0.26. In turn, MKFKYTNHVYRIDCRSAT displayed an amyloid nucleation score of 0.551 ± 0.38. MKFQPETVCYFRGYWLDRQY yielded an amyloid nucleation score of -0.251 ± 0.39. In the case of MKLVECNMDGCDTNTSFGWL it was -0.884 ± 0.78. MKYSSFINLLPTTWQHYTMN yielded an amyloid nucleation score of -0.119 ± 0.65.

On to MLANTYDSEPSRHRCVGKPI, for which the amyloid nucleation score is 0.754 ± 0.44.

For MLDVVARNH, the amyloid nucleation score was determined as 1.52 ± 0.3.

On to MLFSRFRNICG, for which the amyloid nucleation score is -0.08 ± 1. To MLKIHFLPLLGQWTLCRNPL belongs 1.28 ± 0.43; to MLLHMWCWIGPGKYLSVTKF, “inactive”. In the case of MLNARELGETNKMLIVWVYL it was 0.441 ± 0.22; in that of MLRPAAHDGVKASYVKFKI, 0.489 ± 0.45. To MLSDSLLDCRVLLMVFGRET belongs 3.81 ± 0.051; to MLSTSDPVGFGRFCQNDWLN, 0.256 ± 0.55; to MLVLSTGHPRGFWTRVVCCD, 0.092 ± 1.1.

As for MLVMTMLWKMFSVAG, the amyloid nucleation score was 0.432 ± 0.26. In the case of MLYLCMFTERVDDNTFALYR it was “inactive”. In the case of MMAIHVRMLARQSFGRICFM it was 3.45 ± 0.098; in that of MMLSLANNHGSL, 0.174 ± 0.28. To MMRVTIPGVVLSCWPFGSTR belongs 3.09 ± 0.11; to MNIFKYFQSSSETMLTLKCT, -0.724 ± 1; to MNLPKFNSYLMDSANARASP, 0.58 ± 0.19. MNNDSAFIEYTGHQWIWGVR gave an amyloid nucleation score of 0.269 ± 0.26. To MNVDGNFWAGVELTYIEGSS belongs -0.587 ± 0.79; to MPGKPWTGVVLKPRSESPAW, 0.057 ± 0.48. Turning to MPIEVILCFGG, the amyloid nucleation score came out at 1.84 ± 0.34. In the case of MPNNVPEEN it was 0.216 ± 0.62; in that of MPPHSVSVITNSHF, “inactive”; in that of MRCNYLAEYRFQRG, -0.669 ± 0.44. In the case of MRGTRACIFKRQDTSNTLNE it was -1.42 ± 0.62. The substance MRHILCISSVGRFNFRCCFK displayed an amyloid nucleation score of -0.038 ± 1. To MRHRCGHKKVSGV belongs 1.27 ± 0.49.

MRKLSKLLTWHPRHA displayed an amyloid nucleation score of -0.517 ± 0.54.

Turning to MRKWTVSGIRGGRN, the amyloid nucleation score turned out to be 0.879 ± 0.23.

For the substance MRLNYVYGCSFLDRIGT, the amyloid nucleation score amounted to 0.57 ± 0.33.

On to MRMYLGVDSENRASDMGRTR, for which the amyloid nucleation score amounted to 1.03 ± 0.36.

MRVLFIDYKTVRYCDDL: the amyloid nucleation score was -1.03 ± 1.1. In the case of MRWGY it was -0.393 ± 1; in that of MRYEALMHPWSWRFR, 1.06 ± 0.12.

The substance MSCTRDSLCLNFLVILFTTQ displayed an amyloid nucleation score of 3.03 ± 0.065. Substance MSGFKGVITSTFIANSLLPM showed an amyloid nucleation score of -1.17 ± 0.48. To MSIRIGEWPVHSGAYEESLK belongs 0.223 ± 0.45; to MSLGMCFKWRHRNIVYNLSA, -0.408 ± 0.63.

Consider MSLTIWGICRCKQ, for which the amyloid nucleation score was -0.097 ± 0.76.

Substance MSMSHSAGDRDGWIFDHRDV showed an amyloid nucleation score of 1.46 ± 0.61. To MSRNF belongs 4.87 ± 0.076; to MSRPSSYS, “inactive”; to MTGSTSKMGRCFWQFICSGL, “inactive”.

For MTVDYLHRLCCMRPLYTSKN, the amyloid nucleation score entry is “inactive”.
